The text below walks through data of US20170369523A1, “TEMPLATE-FIXED BETA-HAIRPIN PEPTIDOMIMETICS THAT ARE LIGANDS FOR G-PROTEIN-COUPLED RECEPTORS (GPCRS) AND ARE MODULATORS OF TRANSCRIPTION FACTORS AND COACTIVATORS” (POLYPHOR AG, priority 2008, published 2017).

To fix the notation:
B1: Ex. 35 (peptide)
peptide: cyclo(DCFWKYC[Cha][dP]P)
modifications: disulfide 2-7
SMILES: NCCCC[C@@H]1NC(=O)[C@H](Cc2c[nH]c3ccccc23)NC(=O)[C@H](Cc2ccccc2)NC(=O)[C@@H]2CSSC[C@H](NC(=O)[C@H](Cc3ccc(O)cc3)NC1=O)C(=O)N[C@@H](CC1CCCCC1)C(=O)N1CCC[C@@H]1C(=O)N1CCC[C@H]1C(=O)N[C@@H](CC(=O)O)C(=O)N2
B2: Ex. 32 (peptide)
peptide: cyclo(DCF[dW][Orn]YCV[dP]P)
modifications: disulfide 2-7
SMILES: CC(C)[C@@H]1NC(=O)[C@@H]2CSSC[C@H](NC(=O)[C@H](CC(=O)O)NC(=O)[C@@H]3CCCN3C(=O)[C@H]3CCCN3C1=O)C(=O)N[C@@H](Cc1ccccc1)C(=O)N[C@H](Cc1c[nH]c3ccccc13)C(=O)N[C@@H](CCCN)C(=O)N[C@@H](Cc1ccc(O)cc1)C(=O)N2

Numbered stars: 1 amine (or outer) side, 2 acyl side, 3 side chain; on linkers, the order of the positions; unused ones are H or OH. Bridge positions count the residues as written; N and C are the ends. Square brackets hold non-standard residues; d marks the D form. Peptide text beside a SMILES is read from it. Glu(cHx) = L-glutamic acid cyclohexyl ester, O=C(CC[C@H](N[*:1])C(=O)[*:2])OC1CCCCC1; Pro(4S-SH) = O=C([C@@H]1C[C@H](S[*:3])CN1[*:1])[*:2]; Trp(6-Cl) = N[C@@H](Cc1c[nH]c2cc(Cl)ccc12)C(=O)O; Cha = N[C@@H](CC1CCCCC1)C(=O)O; Orn = NCCC[C@H](N)C(=O)O

The Ki is a dissociation constant, usually derived from enzyme kinetics or from competition with a known ligand.

The target in one assay is T1, human UTR2 receptor (human, UniProt Q9UKP6 1-389).
T1 sequence (looked up): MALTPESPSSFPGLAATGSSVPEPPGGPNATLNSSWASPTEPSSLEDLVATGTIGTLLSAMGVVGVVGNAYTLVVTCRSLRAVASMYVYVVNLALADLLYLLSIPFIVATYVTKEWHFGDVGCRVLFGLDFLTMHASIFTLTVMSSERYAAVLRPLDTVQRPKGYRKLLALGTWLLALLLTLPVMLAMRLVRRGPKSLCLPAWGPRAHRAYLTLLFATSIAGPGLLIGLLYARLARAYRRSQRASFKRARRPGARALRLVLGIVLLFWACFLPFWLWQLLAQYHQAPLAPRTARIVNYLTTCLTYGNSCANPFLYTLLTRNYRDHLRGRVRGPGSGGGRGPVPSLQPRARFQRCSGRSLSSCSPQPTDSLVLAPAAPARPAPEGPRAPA
As to the kind of experiment: cell-based or functional assay.
Details: not given
Regarding B1, the “IC50% (Ca2+ assay, antagonist activity; compound added prior to urotensin)” value was determined as 0.2 nM.

As for B2, the “IC50% (Ca2+ assay, antagonist activity; compound added prior to urotensin)” value came to 0.03 nM.

The next assay deals with T2, NCoA-1 (Homo sapiens, UniProt Q15788).
T2 sequence (Q15788 257-385 limits assumed): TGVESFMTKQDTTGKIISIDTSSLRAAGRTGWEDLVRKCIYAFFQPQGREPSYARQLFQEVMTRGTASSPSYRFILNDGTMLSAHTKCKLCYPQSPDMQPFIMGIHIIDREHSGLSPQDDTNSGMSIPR
As to the kind of experiment: Competition fluorescence polarization assay: NCoA-1 binding affinities of peptides (STAT6/NCoA-1 interaction). The conditions noted are these: competition with FluoSTAT6 (200 nM), NCoA-1 1 μM; Ki calculated from IC50; read-out: Ki [μM], peptide binding to NCoA-1. On the procedure: 2.4. Fluorescence Polarization Assay: NCoA-1 Binding Affinities of Peptides
The mixtures were shaken thoroughly. Fluorescence polarization was measured on a SPECTRAmax M5 spectrometer (Molecular device) following 5-30 min incubation at room temperature. FluoSTAT6 was excited at 490 nm and emission polarization was detected at 525 nm. 40 intensity measurements were collected for each well, 20 at horizontal position of the dynamic polarizer, 20 at parallel position. As the fraction of FluoSTAT6 bound to NCoA-1 is correlated to the fluorescence polarization (FP), after normalization, the fraction of bound FluoSTAT6 (B) was determined, and the KD was calculated according to B=[(1+P/R+KD/R)−((1+P/R+KD/R)^2−4P/R)^0.5]/2, wherein P is the total probe concentration, R the total protein concentration and KD the dissociation constant (M. H. Roehrl, J. Y. Wang, G. Wagner, Biochemistry 2004, 3, 16056).
The mixture was completed by a HEPES buffer solution of NCoA-1 (1 μM final concentration) and processed as described above. STAT6Y (C-terminal tyrosine extended STAT6 794-814 peptide) was used as a positive control. As the total fluorescence intensity of FluoSTAT6 remains similar for all samples, the fraction of peptide bound to NCoA-1 is correlated to the fluorescence polarization.
Following normalization data were fitted with IGORpro Software® (WaveMetrics, Lake Oswego, Oreg., USA) to a sigmoid equation to determine IC50 values. The Ki values were calculated from IC50 values according to the method described by Nikolovska-Coleska et al. Anal. Biochem., 2004, 332, 261).
On to `C[C@@H]1NC(=O)[C@H](CS)NC(=O)[C@H](Cc2c[nH]c3cc(Cl)ccc23)NC(=O)[C@H](CCC(=O)O)NC(=O)[C@H](Cc2ccccc2)NC(=O)[C@@H]2CCCN2C(=O)[C@H]2CCCN2C(=O)[C@H](Cc2ccccc2)NC(=O)[C@H](CCC(=O)O)NC(=O)[C@H](Cc2c[nH]c3ccccc23)NC1=O` [compound 15] (cyclo(FE[Trp(6-Cl)]CAWEF[dP]P)), for which the Ki was 3.1 µM.

Turning to “backbone-cyclized β-hairpin peptidomimetic; P1-P8 Phe-Glu-Trp-Leu-Ala-Trp-Glu-Glu(cHx), template DPro-LPro (cyclo(FEWLAWE[Glu(cHx)][dP]P); SMILES CC(C)C[C@@H]1NC(=O)[C@H](Cc2c[nH]c3ccccc23)NC(=O)[C@H](CCC(=O)O)NC(=O)[C@H](Cc2ccccc2)NC(=O)[C@@H]2CCCN2C(=O)[C@H]2CCCN2C(=O)[C@H](CCC(=O)OC2CCCCC2)NC(=O)[C@H](CCC(=O)O)NC(=O)[C@H](Cc2c[nH]c3ccccc23)NC(=O)[C@H](C)NC1=O) [compound 9]”, the inhibitory constant (Ki) was 1.5 µM.

As to “backbone-cyclized β-hairpin peptidomimetic; P1-P8 Phe-Thr-Trp(6Cl)-Leu-Ala-Trp-Glu-Phe, template DPro-L4Mp1 (cyclo(FT[Trp(6-Cl)]LAWEF[dP][Pro(4S-SH)]); SMILES CC(C)C[C@@H]1NC(=O)[C@H](Cc2c[nH]c3cc(Cl)ccc23)NC(=O)[C@H]([C@@H](C)O)NC(=O)[C@H](Cc2ccccc2)NC(=O)[C@@H]2C[C@H](S)CN2C(=O)[C@H]2CCCN2C(=O)[C@H](Cc2ccccc2)NC(=O)[C@H](CCC(=O)O)NC(=O)[C@H](Cc2c[nH]c3ccccc23)NC(=O)[C@H](C)NC1=O) [compound 5]”, the Ki was 3.8 µM.

For `CC[C@H](C)[C@@H]1NC(=O)[C@H](CCC(=O)O)NC(=O)[C@H](Cc2c[nH]c3ccccc23)NC(=O)[C@H](C)NC(=O)[C@H](CC(C)C)NC(=O)[C@H](Cc2c[nH]c3ccccc23)NC(=O)[C@H](CCC(=O)O)NC(=O)[C@H](Cc2ccccc2)NC(=O)[C@@H]2CCCN2C(=O)[C@H]2CCCN2C1=O` [compound 10] (cyclo(FEWLAWEI[dP]P)), the Ki is 3.1 µM.
